Columns and labels:
[1] = target: recombinant HCIQ2c1 Kunitz-type peptide from Heteractis crispa (Heteractis crispa); assay: SPR; Biacore 3000; peptides covalently immobilised on a CM4 chip (970 RU rHCIQ2c1, 460 RU rHCIQ4c7); proteinases 1 nM to 5 μM flowed over; 25 °C; HBS: 0.15 M NaCl, 0.01 M HEPES, pH 7.4
[2] = target: recombinant HCIQ2c1 Kunitz-type peptide from Heteractis crispa (Heteractis crispa); assay: SPR; rHCIQ2c1 immobilised on a CM4 chip; temperature range of 10–40 °С at an interval of 5 °С; enthalpy from the temperature dependence of ΔG (Van't Hoff diagram)

Chain of recombinant HCIQ2c1 Kunitz-type peptide from Heteractis crispa (Heteractis crispa) (A0A6B7FBD3 28-85): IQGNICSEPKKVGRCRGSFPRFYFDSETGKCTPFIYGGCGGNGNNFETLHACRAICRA

| Substance | Ka [1] [M⁻¹] | Kd [1] [nM] | koff [1] [s⁻¹] | kon [1] [M⁻¹ s⁻¹] | dH [2] [kcal/mol] |
| --- | --- | --- | --- | --- | --- |
| cathepsin G (from UniProt P08311 21-244) (enzyme) | 3.58e+09 | 0.279 | 0.000359 | 1.29e+06 |  |
| α-chymotrypsin (enzyme) | 1.03e+07 | 97.4 | 0.00749 | 76900 | 4.68 |
